Data: patent publication US20210214460A1 (AstraZeneca / MedImmune, published 2021)
Like-named read-outs stand apart in the source and are kept apart here.

Columns and labels:
[1] = molecular target: T1, membrane-bound human BCMA (human, UniProt Q02223 1-184); assay: cell-based or functional assay
T1 sequence (looked up): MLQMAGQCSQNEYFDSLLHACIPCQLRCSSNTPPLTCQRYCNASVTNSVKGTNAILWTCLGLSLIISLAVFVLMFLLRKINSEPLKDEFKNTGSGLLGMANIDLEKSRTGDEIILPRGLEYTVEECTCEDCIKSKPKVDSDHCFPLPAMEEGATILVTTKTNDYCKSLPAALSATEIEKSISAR

[2] = molecular target: soluble BCMA (sBCMA) in conditioned media collected from Ad293 cells expressing human BCMA (human) (UniProt Q02223); assay: cell-based or functional assay
[3] = molecular target: T1, membrane-bound human BCMA; assay: flow cytometry on MM.1S cells (endogenous BCMA), printed as apparent affinity
Method: (§1) Binding of 15B2GL, I09, L15, and J6M0 to membrane-bound human BCMA was evaluated using flow cytometry in multiple myeloma and plasma cell leukemia cell lines that endogenously express BCMA (NCI-H929 and MM.1S, respectively). Binding of 15B2GL, 109, L15 to membrane-bound human BCMA was also evaluated in Ad293 cells expressing human BCMA. Binding assays were performed by incubating the anti-BCMA antibodies with 200,000 cells for 30 minutes at 4° C. followed by two washes with PBS+2% FBS (FACS Buffer). A range of antibody concentrations were evaluated using a 12-point, 3-fold dilution series. Cells were then incubated with 5 ug/mL goat-anti human IgG-AF647 secondary antibodies (Thermo Fisher Scientific, Waltham, Mass.) at 4° C., followed by two washes in PBS+2% FBS. Cells were resuspended in 200 uL PBS+2% FBS+DAPI.
(§2) Fluorescence of live, single cells was measured using a BD Biosciences LSRII cytometer and BD FACSDiva™ software (BD Biosciences, San Jose, Calif.). Data were analyzed using FlowJo™ software (FlowJo, LLC, Ashland, Oreg.). Mean fluorescence intensity values were used to determine percentage bound and EC50 was determined using Prism™ software (GraphPad Software Inc, La Jolla, Calif.).

[4] = molecular target: T2, monomeric human sBCMA (GenScript) (human, UniProt Q02223 1-54); assay: SPR (ProteOn XPR36), antibody captured by anti-Fc, sBCMA 100-6.25 nM as analyte
T2 construct: extracellular domain; also called monomeric BCMA; monomeric (soluble) BCMA
T2 sequence (looked up): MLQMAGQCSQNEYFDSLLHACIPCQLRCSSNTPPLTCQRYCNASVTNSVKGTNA
Method: The binding of 15B2GL monoclonal antibody and optimized clones I09, L15, P10, N22, and M02 (described in Example 1) was assessed using monomeric human sBCMA (GenScript, Piscataway, N.J.) using a ProteOn™ XPR36 instrument (Bio-Rad, Hercules, Calif.). The binding of J6M0 also was assessed for comparison. Standard amine coupling was used to immobilize 25 μg/ml anti-Fc polyclonal antibody (Jackson ImmunoResearch, West Grove, Pa.) prepared in 10 mM sodium acetate buffer (pH 4.5) to the surface of a ProteOn™ GLC biosensor chip (Bio-Rad, Hercules, Calif.) pre-activated with 20 mM EDAC (1-ethyl-3-(3-dimethylaminopropyl)carbodiimide hydrochloride) and 5 mM Sulfo-NHS (N-hydroxysulfosuccinimide) at a density of ˜200-600 resonance units (RU). 15B2GL, I09, L15, P10, N22, M02, and J6M0 were subsequently injected at a concentration of 1 μg/ml for capture by the immobilized anti-Fc polyclonal antibody. The sensorgram was recorded by flowing two-fold serial dilutions of sBCMA prepared in PBS (pH 7.4) with 0.005% (v/v) Tween®-20, ranging from 100-6.25 nM, over the captured surface for 150 seconds at 75 μL/minute with dissociation time of 600 seconds. ProteOn™ data analysis software was used to analyze the data.

[5] = molecular target: T1, membrane-bound human BCMA; assay: flow cytometry on NCI-H929 cells (endogenous BCMA), printed as apparent affinity
Method: as §1, §2

[6] = molecular target: T1, membrane-bound human BCMA; assay: cell-based or functional assay; remark: listed apart in the source
[7] = molecular target: T3, soluble BCMA (sBCMA) in conditioned media collected from Ad293 cells expressing human BCMA (human, UniProt Q02223 1-54); assay: cell-based or functional assay
T3 sequence (looked up): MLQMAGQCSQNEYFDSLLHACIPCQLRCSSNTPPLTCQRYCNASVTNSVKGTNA

[8] = molecular target: T1, membrane-bound human BCMA; assay: cell-based or functional assay; remark: listed apart in the source

Binder | IC50 (ng/mL) of killing of MM.1S cells with 0 ng/mL sBCMA [1] | IC50 (ng/mL) of killing of MM.1S cells with 75 ng/mL sBCMA [1] | IC50 (ng/mL) of killing of MM.1S cells with 270 ng/mL sBCMA [1] | IC50 (ng/mL) of killing of MM.1S cells with 720 ng/mL sBCMA [1] | Fold loss of potency, killing of MM.1S cells with 0 ng/mL sBCMA (reference) [2] | Fold loss of potency, killing of MM.1S cells with 75 ng/mL sBCMA [2] | Fold loss of potency, killing of MM.1S cells with 270 ng/mL sBCMA [2] | Fold loss of potency, killing of MM.1S cells with 720 ng/mL sBCMA [2] | Fold loss of potency, killing of MM.1S cells with 0 ng/mL sBCMA (reference) [7] | Fold loss of potency, killing of MM.1S cells with 75 ng/mL sBCMA [7] | Fold loss of potency, killing of MM.1S cells with 270 ng/mL sBCMA [7] | Fold loss of potency, killing of MM.1S cells with 720 ng/mL sBCMA [7] | IC50 (ng/mL) of killing of MM.1S cells with 0 ng/mL sBCMA [8] | IC50 (ng/mL) of killing of MM.1S cells with 75 ng/mL sBCMA [8] | IC50 (ng/mL) of killing of MM.1S cells with 270 ng/mL sBCMA [8] | IC50 (ng/mL) of killing of MM.1S cells with 720 ng/mL sBCMA [8] | further results
J6M0-SG3249 antibody-drug conjugate (antibody, INN chains, looked up, V domains shown, SG3249 (tesirine) drug payload) VH: QVQLVQSGAEVKKPGSSVKVSCKASGGTFSNYWMHWVRQAPGQGLEWMGATYRGHSDTYYNQKFKGRVTITADKSTSTAYMELSSLRSEDTAVYYCARGAIYDGYDVLDNWGQGTLVTVSS VL: DIQMTQSPSSLSASVGDRVTITCSASQDISNYLNWYQQKPGKAPKLLIYYTSNLHSGVPSRFSGSGSGTDFTLTISSLQPEDFATYYCQQYRKLPWTFGQGTKLEIK | 4.82 ng/mL | 12.8 ng/mL | 32.3 ng/mL | 92.9 ng/mL | 1 fold | 2.66 fold | 6.7 fold | 19.3 fold |  |  |  |  |  |  |  |  | 
J6M0-mc-MMAF antibody-drug conjugate (antibody, INN chains, looked up, V domains shown, mc-MMAF drug payload) VH: QVQLVQSGAEVKKPGSSVKVSCKASGGTFSNYWMHWVRQAPGQGLEWMGATYRGHSDTYYNQKFKGRVTITADKSTSTAYMELSSLRSEDTAVYYCARGAIYDGYDVLDNWGQGTLVTVSS VL: DIQMTQSPSSLSASVGDRVTITCSASQDISNYLNWYQQKPGKAPKLLIYYTSNLHSGVPSRFSGSGSGTDFTLTISSLQPEDFATYYCQQYRKLPWTFGQGTKLEIK | 29.3 ng/mL | 55.5 ng/mL | 160 ng/mL | 1460 ng/mL | 1 fold | 1.9 fold | 5.45 fold | 49.8 fold |  |  |  |  |  |  |  |  | 
anti-BCMA antibody J6M0 (antibody, V domains shown) VH: QVQLVQSGAEVKKPGSSVKVSCKASGGTFSNYWMHWVRQAPGQGLEWMGATYRGHSDTYYNQKFKGRVTITADKSTSTAYMELSSLRSEDTAVYYCARGAIYDGYDVLDNWGQGTLVTVSS VL: DIQMTQSPSSLSASVGDRVTITCSASQDISNYLNWYQQKPGKAPKLLIYYTSNLHSGVPSRFSGSGSGTDFTLTISSLQPEDFATYYCQQYRKLPWTFGQGTKLEIK |  |  |  |  |  |  |  |  |  |  |  |  |  |  |  |  | EC50 [3]: 6.65 nM; Kd [4]: 1 nM; EC50 [5]: 6.02 nM
15B2GL-SG3249 antibody-drug conjugate (antibody, V domains shown, PBD payload SG3249 conjugated site-specifically; residue not stated; DAR 1.82) VH: EVQLVESGGGLVKPGGSLRLSCAASGFTFRSYSMNWVRQAPGKGLEWVSSISGSSNYIYYADSVKGRFTISRDNAKNSLYLQMNSLRAEDTAVYYCARGGNYYVEYFQYWGQGTLVTVSS VL: EIVLTQSPGTLSLSPGERATLSCRASQYISSNYLAWYQQKPGQAPRLLIYGASNRATGIPDRFSGSGSGTDFTLTISRLEPEDFAVYYCQQYGSSPITFGQGTKLEIK |  |  |  |  |  |  |  |  | 1 fold | 1.11 fold | 1.58 fold | 2.01 fold | 14.5 ng/mL | 16.1 ng/mL | 22.9 ng/mL | 29.1 ng/mL | IC50 (ng/mL), in vitro cytotoxicity (CellTiter-Glo, 96 h), EJM cells [6]: 153 ng/mL; IC50 (ng/mL), in vitro cytotoxicity (CellTiter-Glo, 96 h), JJN-3 cells [6]: 36.3 ng/mL; IC50 (ng/mL), in vitro cytotoxicity (CellTiter-Glo, 96 h), L-363 cells [6]: 31.4 ng/mL; IC50 (ng/mL), in vitro cytotoxicity (CellTiter-Glo, 96 h), MM.1R cells [6]: 8.64 ng/mL; IC50 (ng/mL), in vitro cytotoxicity (CellTiter-Glo, 96 h), MM.1S cells [6]: 26.8 ng/mL; IC50 (ng/mL), in vitro cytotoxicity (CellTiter-Glo, 96 h), NCI-H929 cells [6]: 5.99 ng/mL; IC50 (ng/mL), in vitro cytotoxicity (CellTiter-Glo, 96 h), OPM-2 cells [6]: 201 ng/mL; IC50 (ng/mL), in vitro cytotoxicity (CellTiter-Glo, 96 h), U266B1 cells [6]: 39.7 ng/mL
I09-SG3249 antibody-drug conjugate (antibody, V domains shown, PBD payload SG3249 conjugated site-specifically; residue not stated; DAR 1.82) VH: EVQLVESGGGLVKPGGSLRLSCAASGFTFSSYSMNWVRQAPGKGLEWVSSISGSSNYIYYADSVKGRFTISRDNAKNSLYLQMNSLRAEDTAVYYCARGGNYFVEYFQQWGQGTLVTVSS VL: EIVLTQSPGTLSLSPGERATLSCRASQYISSNYLAWYQQKPGQAPRLLIYGASNRATGIPDRFSGSGSGTDFTLTISRLEPEDFAVYYCQQYSSDPITFGQGTKLEIK |  |  |  |  |  |  |  |  | 1 fold | 1.35 fold | 1.98 fold | 5.75 fold | 2.81 ng/mL | 3.79 ng/mL | 5.55 ng/mL | 16.2 ng/mL | 
